The record followed here is paper PMC9304170, “Chloromethyl Glycosides as Versatile Synthons to Prepare Glycosyloxymethyl‐Prodrugs” (Chemistry (Weinheim an Der Bergstrasse, Germany), 2022).

“And” between values parts separate entries of the source, which are not always exact repeats. Equal entries are not always repeated.

The target of series [1] is T1, Agrobacterium Sp. β-glucosidase (Abg, GH1 family) (Agrobacterium sp., UniProt P12614).
T1 sequence (P12614 1-459): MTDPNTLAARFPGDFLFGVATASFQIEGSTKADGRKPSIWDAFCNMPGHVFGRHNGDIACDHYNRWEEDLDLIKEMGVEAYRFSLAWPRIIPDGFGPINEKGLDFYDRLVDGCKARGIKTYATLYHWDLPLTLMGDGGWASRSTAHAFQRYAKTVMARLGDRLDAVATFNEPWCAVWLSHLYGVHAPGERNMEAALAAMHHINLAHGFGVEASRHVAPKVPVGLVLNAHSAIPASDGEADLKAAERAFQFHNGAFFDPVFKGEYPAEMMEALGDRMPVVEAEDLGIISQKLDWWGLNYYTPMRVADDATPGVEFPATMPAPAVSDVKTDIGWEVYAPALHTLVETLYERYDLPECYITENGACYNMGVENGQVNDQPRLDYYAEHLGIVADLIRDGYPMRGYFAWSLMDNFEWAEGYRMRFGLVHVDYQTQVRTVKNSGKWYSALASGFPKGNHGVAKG
In words: Michaelis-Menten kinetics of enzymatic hydrolysis, release of 4-nitrophenol (absorbance at 405 nm). The note with it: transglycosylation suggested for rate enhancement. It is filed as biochemical. The method, then:
(§1) Enzymatic reactions were performed in triplo at pH 6.8 (50 mM final concentration) containing 0.1 % bovine serum albumin at 37 °C.[25] Aliquots of 100 μL were taken at constant time periods and added to 100 μL aq. NaOH (0.1 M) in a 96‐well microtitre plate to quench the enzymatic reaction and ensure maximal absorption of sodium 4‐nitrophenolate as outlined in previous studies.[28] The initial rate (vo) was determined normalized on the ∼0.1 U/mL enzyme concentration and plotted against substrate concentration [S]. Non‐linear regression analysis based on 7–10 concentrations depending on the glycoside, was used to determine the Km and k cat values. k cat values were normalized based on the enzyme concentration. […]
(§2) Kinetic evaluation of 4- nitrophenyloxymethyl glycosides. Enzyme reactions were performed in triplicate. Substrate samples (final volume of 1 mL) were prepared by diluting carefully prepared substrate stock solutions with sodium phosphate buffer pH 6.8 (50 mM final concentration) containing 0.1% bovine serum albumin and milliQ to the desired concentration. The samples were equilibrated at 37 °C for at least 5 minutes before the enzyme in 50 mM buffer (2 U per ml, 50 uL) was added. Aliquots of 100 µL were taken at constant time periods and added to 100 µL aq. NaOH (0.1 M) in a 96 well microtiter plate to quench the enzymatic reaction. The absorbance was measured at 405 nm using a Tecan Spark M10 plate reader.
(§3) Negative assay controls contained no substrate or no enzyme. Rates of the enzymatic reactions were determined at 7 different substrate concentrations from 0.02 – 1.0 mM. Km and kcat values were determined by nonlinear regression analysis using Graphpad 5.0 (GraphPad Software, San Diego, California USA, www.graphpad.com) for fitting the data. Calibration samples at varying concentration (0.05 – 0.5 mM) were prepared similar to the substrate samples in the enzyme reactions by diluting a carefully prepared 4-nitrophenol stock solution with sodium phosphate buffer pH 6.8 (50 mM final concentration) containing 0.1% bovine serum albumin and milliQ to the desired concentration. […]
(§4) (T1 determined as 9.13 sec.) was used. Dynamic measurements were started by heating the sample in the NMR to 37 °C and recording a t0-spectrum. Subsequently Abg (V = 2.05 uL, 0.82 U, 1.64 U/mL) was added to the sample outside of the NMR. The sample was mixed by shaking and quickly reintroduced to the NMR.
(§5) The time of enzyme addition was recorded as t0. Spectra were recorded over an appropriate time- scale with the relaxation delay at 3*T1 of the internal standard.
(§6) In vivo experiments were performed at the company Charles Rivers (Den Bosch, The Netherlands) in accordance with Dutch law of animal experiments and under approval of the central committee of animal experiments (CCD). Relative and absolute bioavailability may be determined in different animal models and according to different protocols.
(§7) The following protocol is typical for determining bioavailability in female Beagle dogs. The animals were deprived from food over a time period of 8 h prior to administration and 2 h after administration of the test molecules. Water was supplied without limitation. On the study day, the animals received test molecule 10h […]
(§8) ethanol and 0.9% NaCl + 5% mannitol in water. Blood samples were collected from the jugular vein on the […]

For series [2], the target named is T2, Abg (Agrobacterium Sp. β-glucosidase) (Agrobacterium sp., UniProt P12614).
T2 sequence (P12614 1-459): T1 sequence (P12614 1-459)
The series can be described thus: Enzymatic conversion of glycoside-drug conjugates at 200 μM analyzed by HPLC. It is filed as biochemical. Conditions: for Product release: 200 μM substrate, 50 mM phosphate buffer pH 6.8, Abg 0.1 U/mL; for Product release / Enzymatic hydrolysis by Abg (in words): 37 °C; for Enzymatic hydrolysis by Abg (in words): HPLC.

Substrate in series [3]: C[C@H]1O[C@@H](OCOc2ccc([N+](=O)[O-])cc2)[C@H](O)[C@@H](O)[C@@H]1O
The series can be described thus: Michaelis-Menten kinetics of enzymatic hydrolysis, release of 4-nitrophenol (absorbance at 405 nm). The note with it: other: 4-nitrophenyloxymethyl glycosides 5a-f, phosphate buffer pH 6.8, 0.1 % BSA, 37 °C, N.A: no activity. Type of series: biochemical, Agrobacterium Sp. The method, then:
as §1, §2, §3, §4, §5, §6, §7, §8

Substrate in series [4]: C[C@H]1O[C@@H](OCOc2ccc([N+](=O)[O-])cc2)[C@H](O)[C@@H](O)[C@H]1O
The description is as above. Type of series: biochemical, Agrobacterium Sp. The note with it: other: 4-nitrophenyloxymethyl glycosides 5a-f, phosphate buffer pH 6.8, 0.1 % BSA, 37 °C, N.A: no activity. The procedure: as §1, §2, §3, §4, §5, §6, §7, §8

Substrate in series [5]: C[C@H]1O[C@@H](Oc2ccc([N+](=O)[O-])cc2)[C@H](O)[C@@H](O)[C@@H]1O
The description is as above. The note with it: other: 4-nitrophenyl glycosides 6a-f, phosphate buffer pH 6.8, 0.1 % BSA, 37 °C. Type of series: biochemical, Agrobacterium Sp. The procedure:
as §1, §2, §3, §4, §5, §6, §7, §8

Substrate in series [6]: C[C@H]1O[C@@H](Oc2ccc([N+](=O)[O-])cc2)[C@H](O)[C@@H](O)[C@H]1O
The description is as above. It is filed as biochemical, Agrobacterium Sp. Conditions: other: 4-nitrophenyl glycosides 6a-f, phosphate buffer pH 6.8, 0.1 % BSA, 37 °C. The method, then:
as §1, §2, §3, §4, §5, §6, §7, §8

Substrate in series [7]: O=[N+]([O-])c1ccc(OCO[C@@H]2O[C@H](CO)[C@@H](O)[C@H](O)[C@H]2O)cc1
Described as above. Type of series: biochemical, Agrobacterium Sp. Conditions: other: 4-nitrophenyloxymethyl glycosides 5a-f, phosphate buffer pH 6.8, 0.1 % BSA, 37 °C, N.A: no activity. The procedure:
as §1, §2, §3, §4, §5, §6, §7, §8

Substrate in series [8]: O=[N+]([O-])c1ccc(OCO[C@@H]2O[C@H](CO)[C@H](O)[C@H](O)[C@H]2O)cc1
The series is described as above. It is filed as biochemical, Agrobacterium Sp. Conditions: other: 4-nitrophenyloxymethyl glycosides 5a-f, phosphate buffer pH 6.8, 0.1 % BSA, 37 °C, N.A: no activity. The procedure:
as §1, §2, §3, §4, §5, §6, §7, §8

Substrate in series [9]: O=[N+]([O-])c1ccc(O[C@@H]2OC[C@@H](O)[C@H](O)[C@H]2O)cc1
The series is described as above. The note with it: other: 4-nitrophenyl glycosides 6a-f, phosphate buffer pH 6.8, 0.1 % BSA, 37 °C. Type of series: biochemical, Agrobacterium Sp. The procedure: as §1, §2, §3, §4, §5, §6, §7, §8

Substrate in series [10]: O=[N+]([O-])c1ccc(O[C@@H]2OC[C@H](O)[C@H](O)[C@H]2O)cc1
The series is described as above. The note with it: other: 4-nitrophenyl glycosides 6a-f, phosphate buffer pH 6.8, 0.1 % BSA, 37 °C. It is filed as biochemical, Agrobacterium Sp. The procedure:
as §1, §2, §3, §4, §5, §6, §7, §8

Substrate in series [11]: O=[N+]([O-])c1ccc(O[C@@H]2O[C@H](CO)[C@@H](O)[C@H](O)[C@H]2O)cc1
The description is as above. The note with it: other: 4-nitrophenyl glycosides 6a-f, phosphate buffer pH 6.8, 0.1 % BSA, 37 °C. Type of series: biochemical, Agrobacterium Sp. The procedure: as §1, §2, §3, §4, §5, §6, §7, §8

Substrate in series [12]: O=[N+]([O-])c1ccc(O[C@@H]2O[C@H](CO)[C@H](O)[C@H](O)[C@H]2O)cc1
The description is as above. Type of series: biochemical, Agrobacterium Sp. Conditions: other: 4-nitrophenyl glycosides 6a-f, phosphate buffer pH 6.8, 0.1 % BSA, 37 °C. The method, then:
as §1, §2, §3, §4, §5, §6, §7, §8

Setting [13] is: 200 μM, in presence of 5 % ethanol.
Where [14] appears, read: 0.5 h, in presence of 5 % ethanol.
Where [15] appears, read: 1.0 h, in presence of 5 % ethanol.
Where [16] appears, read: 2.0 h, in presence of 5 % ethanol.

As for `C[C@H]1O[C@@H](Oc2ccc([N+](=O)[O-])cc2)[C@H](O)[C@@H](O)[C@@H]1O` [6 b], in series [1], the “V0 at high substrate concentration (in words)” value was “over expected rate‐enhancement”.

`O=[N+]([O-])c1ccc(O[C@@H]2OC[C@@H](O)[C@H](O)[C@H]2O)cc1` [6 c, 4‐nitrophenyl xylose]: the “V0 at high substrate concentration (in words)” value in series [1] is “over expected rate‐enhancement”.

For `O=[N+]([O-])c1ccc(O[C@@H]2O[C@H](CO)[C@H](O)[C@H](O)[C@H]2O)cc1` [6 d], the “V0 at high substrate concentration (in words)” value in series [1] was “followed a horizontal asymptote”.

As for `C[C@H]1O[C@@H](Oc2ccc([N+](=O)[O-])cc2)[C@H](O)[C@@H](O)[C@H]1O` [6 e], the “V0 at high substrate concentration (in words)” value in series [1] is “followed a horizontal asymptote”.

In the case of `OC[C@H]1O[C@@H](OCOc2ccccc2)[C@H](O)[C@@H](O)[C@@H]1O` [10 a], the Product release in series [2] (0.5 h) is 38.6±2.3%; in series [2] (1.0 h) it was 66.0±2.0%; in series [2] (2.0 h), 90% and 89.8±1.7%. The “Increase in conversion compared to direct conjugate Glc−Ph” value in [2] (after two hours, 200 μM, Abg) is listed as “twenty”.

On to `CC(C)c1cccc(C(C)C)c1OCO[C@@H]1O[C@H](CO)[C@@H](O)[C@H](O)[C@H]1O` [10 b], for which, in series [2] (setting [13]), the “Enzymatic hydrolysis by Abg (in words)” value is listed as “not hydrolyzed”. The Product release stood at 1.95±0.3% in series [2] (setting [14]), 1.73±0.3% in [2] (setting [15]) and 1.66±0.4% in [2] (setting [16]).

As for `CCCCc1nc(Cl)c(CO)n1Cc1ccc(-c2ccccc2-c2nnn(CO[C@@H]3O[C@H](CO)[C@@H](O)[C@H](O)[C@H]3O)n2)cc1` [10 i], the “Enzymatic hydrolysis by Abg (in words)” value in series [2] (setting [13]) is given as “hydrolyzed slower”. Further, the Product release in [2] (setting [14]) is listed as 16.7±4.8%; in [2] (setting [15]), 39.3±2.2%; in [2] (setting [16]), 51.3±4%; in [2] (24 h, in presence of 5 % ethanol), 74.7±10%.

As to `OC[C@H]1O[C@@H](Oc2ccccc2)[C@H](O)[C@@H](O)[C@@H]1O` [Glc−Ph, phenyl β‐D‐glucopyranoside, reference compound], the Product release was 1.9±0.04% in [2] (0.5 h); 3.0±0.30% in series [2] (1.0 h); 5.2±0.16% in [2] (2.0 h); 28% and 27.7±5.5% in [2] (24 h).

B1: Agrobacterium Sp. β-glucosidase (Abg, GH1 family) (Agrobacterium sp. ATCC 21400) (protein)
chain: T1 sequence (P12614 1-459)
As to B1, the Km came out at 239 µM in [3]; 202 µM in series [4]; 169 µM in [5]; 233 µM in [6]; 84 µM in [7]; 1870 µM in series [8]. Moreover, the Km came to 244 µM in [9], 175 µM in series [10], 108 µM in [11] and 3450 µM in series [12]. Moreover, the kcat in [3] turned out to be 0.796 s⁻¹; in series [4], 7.18 s⁻¹; in series [5], 29.5 s⁻¹; in series [6], 60.3 s⁻¹; in series [7] it was 18.4 s⁻¹; in series [8], 3.71 s⁻¹. Besides, the kcat in series [9] was 0.580 s⁻¹; in series [10], 1.03 s⁻¹; in series [11], 38.8 s⁻¹; in [12], 63.6 s⁻¹. For the same molecule, the kcat/Km is 3330 M⁻¹ s⁻¹ in series [3]; 35500 M⁻¹ s⁻¹ in [4]; 175000 M⁻¹ s⁻¹ in [5]; 259000 M⁻¹ s⁻¹ in series [6]; 219000 M⁻¹ s⁻¹ in [7]; 1980 M⁻¹ s⁻¹ in series [8]. In addition, the kcat/Km is 2380 M⁻¹ s⁻¹ in series [9], 5890 M⁻¹ s⁻¹ in series [10], 359000 M⁻¹ s⁻¹ in series [11] and 18400 M⁻¹ s⁻¹ in series [12].
